The target in this data set is Clover-SNAP-25-mRuby2 FRET sensor (UniProt P60880).
Sequence of UniProt P60880 (P60880 whole entry, looked up): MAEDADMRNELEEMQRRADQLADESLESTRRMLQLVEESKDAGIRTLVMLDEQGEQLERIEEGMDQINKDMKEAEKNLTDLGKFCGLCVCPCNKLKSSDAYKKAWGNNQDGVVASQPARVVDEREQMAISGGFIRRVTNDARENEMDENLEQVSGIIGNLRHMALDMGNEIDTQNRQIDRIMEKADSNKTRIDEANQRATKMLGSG

Turning to “WT tALC (truncated wild-type BoNT/A-LC, residues 1-424)”, the % activity relative to WT tALC came to 100% and the “dynamic range in FRET upon SNAP-25 cleavage” value is listed as 6-fold emission ratio in 30 minutes.
